Data as given in patent publication US20250043302A1, “MUTATED HYDROXYPHENYLPYRUVATE DIOXYGENASE POLYPEPTIDE, AND CODING GENE AND USE THEREOF” (BEIJING DABEINONG BIOTECHNOLOGY CO., LTD., priority 2021, published 2025).

Assays:
[1] = test system: Arabidopsis thaliana T1 plants; test: Isoxaflutole tolerance of transgenic Arabidopsis thaliana T1 plants (spray, bleached leaf area grade, damage score); type: in vivo; conditions: Table 11; for Classification and statistics of the grade of pesticide damage Grade 0: number of plants at grade 0; for Classification and statistics of the grade of pesticide damage Grade 1: number of plants at grade 1; for Classification and statistics of the grade of pesticide damage Grade 2: number of plants at grade 2; for Classification and statistics of the grade of pesticide damage Grade 3: number of plants at grade 3; for Scores: pesticide damage score;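 for Scores: Weighted damage index from 0 to 100 where higher means more damage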
Source text: (§1) T1 transformants were initially selected from the untransformed seeds using a glufosinate selection scheme. The Arabidopsis thaliana T1 plants (AsHPPD-02) into which the AsHPPD-02 nucleotide sequence was introduced, the Arabidopsis thaliana T1 plants (AsHPPDm-F372A-02) into which the AsHPPDm-F372A-02 nucleotide sequence was introduced, the Arabidopsis thaliana T1 plants (AsHPPDm-F383W-02) into which the AsHPPDm-F383W-02 nucleotide sequence was introduced, the Arabidopsis thaliana T1 plants (AsHPPDm-F372A-F383W-02) into which the AsHPPDm-F372A-F383W-02 nucleotide sequence was introduced, the Arabidopsis thaliana T1 plants (DBN11726N) into which the control recombinant expression vector DBN11726N was introduced, and the wild-type Arabidopsis thaliana plants (CK) (18 days after sowing) were sprayed respectively with topramezone at three concentrations (100 g ai/ha (four-fold field concentration, 4×), 200 g ai/ha (eight-fold field concentration, 8×), and 0 g ai/ha (water, 0×)), isoxaflutole at three concentrations (140 g ai/ha (two-fold field concentration, 2×), 280 g ai/ha (four-fold field concentration, 4×), and 0 g ai/ha (water, 0×)), and mesotrione at three concentrations (210 g ai/ha (two-fold field concentration, […]), 420 g ai/ha (four-fold field concentration, 4×), and 0 g ai/ha (water, 0×)), to determine the tolerance of Arabidopsis thaliana to the herbicides. The degree of damage caused by the herbicide was measured for each plant according to the proportion of bleached leaf area (the proportion of bleached leaf area=bleached leaf area/total leaf area×100%) 7 days after spraying (7 DAT): the case where there is basically no bleached phenotype is defined as grade 0, the case where the proportion of bleached leaf area is less than 50% is defined as grade 1, the case where the proportion of bleached leaf area is more than 50% is defined as grade 2, and the case where the proportion of bleached leaf area is 100% grade is defined as grade 3.
(§2) According to the method as described above in point 6 of Example 1, the aforementioned Arabidopsis thaliana T1 plants and wild-type Arabidopsis thaliana plants (CK) (18 days after sowing) were sprayed respectively with topramezone at three concentrations (25 g ai/ha (one-fold field concentration, 1×). 100 g ai/ha (four-fold field concentration, 4×), and 0 g ai/ha (water, 0×)), isoxaflutole at three concentrations (35 g ai/ha (half-fold field concentration, 0.5×). 70 g ai/ha (one-fold field concentration, 1×), and 0 g ai/ha (water, 0×)), and mesotrione at three concentrations (52.5 g ai/ha (half-fold field concentration, 0.5×), 105 g ai/ha (one-fold field concentration, 1×), and 0 g ai/ha (water, 0×)) to detect the tolerance of Arabidopsis thaliana to the herbicides.
(§3) According to the method as described above in point 6 of Example 1, the aforementioned Arabidopsis thaliana T1 plants and wild-type Arabidopsis thaliana plants (CK) (18 days after sowing) were sprayed with topramezone at three different concentrations (i.e., 100 g ai/ha (four-fold field concentration, 4×), 200 g ai/ha (eight-fold field concentration, 8×) and 0 g ai/ha (water, 0×)), isoxaflutole at three different concentrations (i.e., 140 g ai/ha (two-fold field concentration, 2×), 280 g ai/ha (four-fold field concentration, 4×) and 0 g ai/ha (water, 0×)), and mesotrione at three different concentrations (i.e., 210 g ai/ha (two-fold field concentration, 2×), 420 g ai/ha (four-fold field concentration, 4×) and 0 g ai/ha (water, 0×)) respectively to detect the herbicide tolerance of Arabidopsis thaliana. […]

[2] = test system: Arabidopsis thaliana T1 plants; test: Mesotrione tolerance of transgenic Arabidopsis thaliana T1 plants (spray, bleached leaf area grade, damage score); type: in vivo; design: Scores: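 damage score 0-100 computed as Σ(N×S)/(T×M)×100 over grades 0-3 with higher meaning more damage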; conditions: Table 12; for Classification and statistics of the grade of pesticide damage Grade 0: number of plants at grade 0; for Classification and statistics of the grade of pesticide damage Grade 1: number of plants at grade 1; for Classification and statistics of the grade of pesticide damage Grade 2: number of plants at grade 2; for Classification and statistics of the grade of pesticide damage Grade 3: number of plants at grade 3; for Scores: pesticide damage score
Source text: as §1, §2, §3

B1: AsHPPDm-A107-F372A-02: nucleotide sequence encoding Avena sativa HPPD with A107 deletion+F372A; vector DBN11778 (nucleic acid)
DNA: ATGCCACCTACTCCAGCTACAGCTACTGGTGCTGCTGCTGCTGCCGTTACTCCTGAGCACGCTGCCAGGTCATTCCCCAGGGTGGTTCGCGTGAACCCCAGATCTGATAGGTTCCCAGTTCTGAGCTTCCACCATGTTGAGCTGTGGTGCGCTGATGCTGCTTCTGCTGCTGGCAGGTTCTCTTTCGCTCTTGGTGCTCCACTCGCTGCTAGATCTGATCTGTCTACAGGAAATAGCGCTCATGCCTCACTCCTGCTTCGCTCAGGTGCTTTGGCCTTCCTCTTCACCGCTCCATATGCTCCCCCACCTCAGGAGGCTACTGCTGCTGCTACAGCCTCCATTCCAAGCTTCTCAGCTGATGCCGCTAGAACCTTCGCTGCTGCTCATGGACTTGCCGTGAGGTCTGTTGGTGTTCGCGTGGCTGATGCTGCTGAGGCTTTCAGAGTTTCCGTTGCCGGCGGAGCTAGGCCAGCTTTCGCTCCTGCTGATTTGGGACATGGTTTCGGCCTGGCTGAGGTTGAGCTTTACGGTGACGTGGTTCTCCGCTTCGTGTCTTACCCAGATGAGACTGACCTGCCTTTCCTTCCCGGCTTCGAGAGAGTTTCCTCTCCTGGTGCCGTGGATTACGGCCTGACAAGGTTCGACCACGTGGTTGGAAACGTTCCCGAGATGGCTCCAGTGATCGATTACATGAAGGGCTTCCTTGGATTCCATGAGTTCGCCGAGTTCACTGCTGAGGACGTGGGAACCACTGAGTCCGGTTTGAACTCTGTGGTTCTCGCCAACAATTCTGAGGCTGTTTTGCTCCCTCTGAATGAGCCTGTGCATGGAACCAAGAGGAGAAGCCAGATTCAAACTTACCTGGAGTACCACGGTGGCCCTGGAGTTCAGCATATCGCCCTTGCTTCTAATGATGTGTTGCGCACACTCAGAGAGATGCGCGCCAGAACCCCCATGGGAGGTTTCGAGTTCATGGCCCCACCACAGGCTAAGTACTACGAGGGCGTTAGAAGGATTGCTGGAGACGTGTTGAGCGAGGAGCAGATCAAGGAGTGCCAAGAGCTGGGTGTTCTTGTGGATAGGGATGACCAGGGCGTTCTGCTTCAAATTGCCACTAAGCCAGTGGGCGACCGCCCTACATTCTTCCTTGAGATGATTCAAAGAATCGGCTGCATGGAGAAGGATGAGGTTGGACAGGAGTACCAAAAGGGCGGATGCGGTGGCTTCGGAAAGGGTAACTTCAGCGAGTTGTTCAAGTCAATCGAGGACTACGAGAAGAGCCTCGAGGTGAAGCAGTCAGTGGTTGCCCAAAAGTCCTGA
modifications: AsHPPDm-A107-F372A-02 Nucleotide Sequence
notes: vector DBN11778
With B1 the Resistance evaluation ([1]; isoxaflutole 140 g ai/ha (2×)) was “Moderately”, the “Classification and statistics of the grade of pesticide damage Grade 0” value ([1]; isoxaflutole 140 g ai/ha (2×)) was 5 and the “Classification and statistics of the grade of pesticide damage Grade 1” value ([1]; isoxaflutole 140 g ai/ha (2×)) was 7. For the same molecule, the “Classification and statistics of the grade of pesticide damage Grade 2” value ([1]; isoxaflutole 140 g ai/ha (2×)) was 4, the “Classification and statistics of the grade of pesticide damage Grade 3” value ([1]; isoxaflutole 140 g ai/ha (2×)) was 0 and the Scores ([1]; isoxaflutole 140 g ai/ha (2×)) was 31. For the same molecule, the Resistance evaluation ([1]; isoxaflutole 280 g ai/ha (4×)) was “Poorly resistant”, the “Classification and statistics of the grade of pesticide damage Grade 0” value ([1]; isoxaflutole 280 g ai/ha (4×)) was 0 and the “Classification and statistics of the grade of pesticide damage Grade 1” value ([1]; isoxaflutole 280 g ai/ha (4×)) was 1. For the same molecule, the “Classification and statistics of the grade of pesticide damage Grade 2” value ([1]; isoxaflutole 280 g ai/ha (4×)) was 15, the “Classification and statistics of the grade of pesticide damage Grade 3” value ([1]; isoxaflutole 280 g ai/ha (4×)) was 0 and the Scores ([1]; isoxaflutole 280 g ai/ha (4×)) was 65. The Resistance evaluation ([2]; mesotrione 210 g ai/ha (2×)) was “Moderately”, the “Classification and statistics of the grade of pesticide damage Grade 0” value ([2]; mesotrione 210 g ai/ha (2×)) was 6 and the “Classification and statistics of the grade of pesticide damage Grade 1” value ([2]; mesotrione 210 g ai/ha (2×)) was 7. For the same molecule, the “Classification and statistics of the grade of pesticide damage Grade 2” value ([2]; mesotrione 210 g ai/ha (2×)) was 1, the “Classification and statistics of the grade of pesticide damage Grade 3” value ([2]; mesotrione 210 g ai/ha (2×)) was 2 and the Scores ([2]; mesotrione 210 g ai/ha (2×)) was 31. For the same molecule, the Resistance evaluation ([2]; mesotrione 420 g ai/ha (4×)) was “Poorly resistant”, the “Classification and statistics of the grade of pesticide damage Grade 0” value ([2]; mesotrione 420 g ai/ha (4×)) was 1 and the “Classification and statistics of the grade of pesticide damage Grade 1” value ([2]; mesotrione 420 g ai/ha (4×)) was 7. For the same molecule, the “Classification and statistics of the grade of pesticide damage Grade 2” value ([2]; mesotrione 420 g ai/ha (4×)) was 8, the “Classification and statistics of the grade of pesticide damage Grade 3” value ([2]; mesotrione 420 g ai/ha (4×)) was 0 and the Scores ([2]; mesotrione 420 g ai/ha (4×)) was 48.
